Patent publication EP4450093A1, “CLEAVABLE IMMUNE CELL ENGAGERS” (Synaffix B.V., priority 2023, dated 2024)

Molecular target: IL-15 receptor on the IL-15 cells of the IL-15 bioassay (Promega, cat.# JA2015) (mouse cell line)
Experiment: cell-based or functional assay

Fold induction, IL-15 bioassay: 0.9 fold
Substance: trastuzumab (Herceptin), non-modified antibody
